According to patent US20090298769A1 (CLEVELAND CLINIC FOUNDATION, published 2009):

Molecular target: T1, VEGFR-2 of human endothelial cells (HUVEC) (human, UniProt P35968 20-1356)
T1 construct: whole, on cells; Endogenous, detected in cell lysates or by staining; also called VEGF receptor-2
Test: co-immunoprecipitation (anti-VEGFR-2 IP, anti-integrin β5 blot), HUVEC with or without VEGF

T1 sequence (P35968 20-1356): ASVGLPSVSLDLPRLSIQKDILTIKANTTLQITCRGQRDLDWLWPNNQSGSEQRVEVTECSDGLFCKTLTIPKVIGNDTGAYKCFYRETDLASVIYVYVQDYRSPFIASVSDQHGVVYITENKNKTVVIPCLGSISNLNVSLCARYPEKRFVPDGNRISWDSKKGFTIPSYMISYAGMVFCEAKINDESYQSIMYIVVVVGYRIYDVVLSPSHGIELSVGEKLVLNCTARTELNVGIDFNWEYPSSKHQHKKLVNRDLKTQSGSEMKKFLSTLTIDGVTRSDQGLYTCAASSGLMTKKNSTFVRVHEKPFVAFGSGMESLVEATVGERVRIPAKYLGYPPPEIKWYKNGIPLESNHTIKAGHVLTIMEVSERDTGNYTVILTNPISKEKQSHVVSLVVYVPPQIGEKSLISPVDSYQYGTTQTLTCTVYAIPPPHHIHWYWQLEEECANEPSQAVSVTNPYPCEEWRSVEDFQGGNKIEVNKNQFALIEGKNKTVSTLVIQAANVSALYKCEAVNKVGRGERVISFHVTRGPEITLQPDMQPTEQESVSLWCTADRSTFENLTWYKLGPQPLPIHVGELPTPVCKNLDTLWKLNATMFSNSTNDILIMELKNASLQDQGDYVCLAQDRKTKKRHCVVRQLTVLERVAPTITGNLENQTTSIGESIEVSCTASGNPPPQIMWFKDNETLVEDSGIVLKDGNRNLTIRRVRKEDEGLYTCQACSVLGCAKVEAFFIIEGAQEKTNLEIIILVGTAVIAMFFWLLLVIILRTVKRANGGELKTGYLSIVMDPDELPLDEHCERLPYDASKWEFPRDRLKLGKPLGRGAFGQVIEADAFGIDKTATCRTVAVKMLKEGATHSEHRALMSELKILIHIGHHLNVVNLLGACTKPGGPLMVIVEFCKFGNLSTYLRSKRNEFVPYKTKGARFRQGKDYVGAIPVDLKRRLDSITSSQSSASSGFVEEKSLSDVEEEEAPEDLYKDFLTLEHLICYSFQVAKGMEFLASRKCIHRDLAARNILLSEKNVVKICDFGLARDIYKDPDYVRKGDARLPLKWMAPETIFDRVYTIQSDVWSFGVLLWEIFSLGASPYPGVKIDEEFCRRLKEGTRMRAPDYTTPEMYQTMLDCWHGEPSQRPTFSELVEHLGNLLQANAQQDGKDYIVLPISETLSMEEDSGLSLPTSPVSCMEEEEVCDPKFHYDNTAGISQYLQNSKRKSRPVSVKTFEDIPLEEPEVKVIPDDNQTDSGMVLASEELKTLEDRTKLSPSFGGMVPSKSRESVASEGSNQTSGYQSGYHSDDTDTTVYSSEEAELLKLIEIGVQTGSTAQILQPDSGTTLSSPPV

binding result: no binding
B1: β5 integrin of HUVEC (receptor, human, UniProt P18084 24-799, looked up)
chain: GLNICTSGSATSCEECLLIHPKCAWCSKEDFGSPRSITSRCDLRANLVKNGCGGEIESPASSFHVLRSLPLSSKGSGSAGWDVIQMTPQEIAVNLRPGDKTTFQLQVRQVEDYPVDLYYLMDLSLSMKDDLDNIRSLGTKLAEEMRKLTSNFRLGFGSFVDKDISPFSYTAPRYQTNPCIGYKLFPNCVPSFGFRHLLPLTDRVDSFNEEVRKQRVSRNRDAPEGGFDAVLQAAVCKEKIGWRKDALHLLVFTTDDVPHIALDGKLGGLVQPHDGQCHLNEANEYTASNQMDYPSLALLGEKLAENNINLIFAVTKNHYMLYKNFTALIPGTTVEILDGDSKNIIQLIINAYNSIRSKVELSVWDQPEDLNLFFTATCQDGVSYPGQRKCEGLKIGDTASFEVSLEARSCPSRHTEHVFALRPVGFRDSLEVGVTYNCTCGCSVGLEPNSARCNGSGTYVCGLCECSPGYLGTRCECQDGENQSVYQNLCREAEGKPLCSGRGDCSCNQCSCFESEFGKIYGPFCECDNFSCARNKGVLCSGHGECHCGECKCHAGYIGDNCNCSTDISTCRGRDGQICSERGHCLCGQCQCTEPGAFGEMCEKCPTCPDACSTKRDCVECLLLHSGKPDNQTCHSLCRDEVITWVDTIVKDDQEAVLCFYKTAKDCVMMFTYVELPSGKSNLTVLREPECGNTPNAMTILLAVVGSILLVGLALLAIWKLLVTIHDRREFAKFQSERSRARYEMASNPLYRKPISTHTVDFTFNKFNKSYNGTVD
notes: whole, on cells; also called integrin β5
